Assay results from PMC4894655, “Three proliferating cell nuclear antigen homologues from Metallosphaera sedula form a head-to-tail heterotrimer” (Scientific Reports, 2016).
Where two headings read alike, the source gives them in different places.

Experiments:
[1] = target: T1, MsePCNA1:MsePCNA2 heterodimer (Metallosphaera sedula, UniProt A4YCS6 1-247; A4YHP5 1-244); assay: SPR; Biacore; MsePCNA2 or SsoPCNA2 immobilised on CM5, 1 μM MsePCNA1 or SsoPCNA1 applied, then MsePCNA3 or SsoPCNA3 injected at various concentrations; plateau signal fitted to a Langmuir isotherm; 10 mM HEPES-HCl pH 7.4, 150 mM NaCl
T1 construct: MsePCNA1 (Msed_0051), PCNA homologue of Metallosphaera sedula; as m1; MsePCNA2 (Msed_1792), PCNA homologue of Metallosphaera sedula; as m2; In SPR formed on the chip: MsePCNA2 immobilised on CM5, then 1 μM MsePCNA1 applied; In the pull-down and SEC formed in the mixture; Tag removal is said for the pull-down only; also called immobilised MsePCNA2 with MsePCNA1; MsePCNA1 and MsePCNA2 together; …
T1 sequence (looked up) 1: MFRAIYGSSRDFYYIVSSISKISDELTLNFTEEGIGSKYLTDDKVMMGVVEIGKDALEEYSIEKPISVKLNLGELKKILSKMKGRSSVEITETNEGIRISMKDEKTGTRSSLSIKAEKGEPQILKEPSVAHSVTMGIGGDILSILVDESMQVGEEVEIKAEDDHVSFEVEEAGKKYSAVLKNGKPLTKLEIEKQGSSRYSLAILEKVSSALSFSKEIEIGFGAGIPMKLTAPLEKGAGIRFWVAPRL
T1 sequence (looked up) 2: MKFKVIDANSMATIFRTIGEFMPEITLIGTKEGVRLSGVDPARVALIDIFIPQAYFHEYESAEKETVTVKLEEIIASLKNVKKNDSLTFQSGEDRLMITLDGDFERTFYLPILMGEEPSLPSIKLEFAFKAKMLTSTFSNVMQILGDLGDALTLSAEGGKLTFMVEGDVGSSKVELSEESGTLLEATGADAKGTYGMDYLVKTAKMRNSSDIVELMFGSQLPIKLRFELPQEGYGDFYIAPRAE

[2] = target: T2, SsoPCNA1:MsePCNA2 complex (Sulfolobus solfataricus | …, UniProt P57766 1-249; A4YHP5 1-244); assay: as above
T2 construct: SsoPCNA1, PCNA subunit 1 of Sulfolobus solfataricus; as m4; MsePCNA2 (Msed_1792), PCNA homologue of Metallosphaera sedula; as m2; Formed on the SPR chip: MsePCNA2 immobilised on CM5, then 1 μM SsoPCNA1 applied; also called immobilised MsePCNA2 that tethered SsoPCNA1
T2 sequence (looked up) 1: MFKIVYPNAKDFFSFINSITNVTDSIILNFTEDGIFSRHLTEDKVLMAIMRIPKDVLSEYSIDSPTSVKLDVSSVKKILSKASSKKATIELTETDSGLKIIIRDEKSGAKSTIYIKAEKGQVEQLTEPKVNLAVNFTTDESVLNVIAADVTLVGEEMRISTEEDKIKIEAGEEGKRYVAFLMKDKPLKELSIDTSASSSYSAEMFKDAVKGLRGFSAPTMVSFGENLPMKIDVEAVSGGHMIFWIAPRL
T2 sequence (looked up) 2: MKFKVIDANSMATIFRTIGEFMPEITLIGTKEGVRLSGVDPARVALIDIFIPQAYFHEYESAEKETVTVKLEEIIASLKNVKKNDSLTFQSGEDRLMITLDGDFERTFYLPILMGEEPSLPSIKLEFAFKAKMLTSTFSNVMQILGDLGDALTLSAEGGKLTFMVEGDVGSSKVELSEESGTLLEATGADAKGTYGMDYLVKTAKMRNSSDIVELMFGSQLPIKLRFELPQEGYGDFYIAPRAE

[3] = target: SsoPCNA1:SsoPCNA2 heterodimer (Sulfolobus solfataricus) (UniProt P57766); assay: as above
[4] = target: T3, MsePCNA2 (Metallosphaera sedula, UniProt A4YHP5 1-244); assay: SPR; 40 nM MsePCNA1
T3 chain: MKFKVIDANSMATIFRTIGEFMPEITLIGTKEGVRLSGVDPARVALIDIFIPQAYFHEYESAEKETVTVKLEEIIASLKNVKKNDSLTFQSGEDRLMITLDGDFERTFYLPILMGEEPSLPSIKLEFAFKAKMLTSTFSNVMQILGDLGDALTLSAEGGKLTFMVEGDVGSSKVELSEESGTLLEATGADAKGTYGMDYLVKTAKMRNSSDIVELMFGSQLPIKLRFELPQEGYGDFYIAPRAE

[5] = target: T4, SsoPCNA2 (Sulfolobus solfataricus); assay: SPR; 40 nM MsePCNA1
T4 chain: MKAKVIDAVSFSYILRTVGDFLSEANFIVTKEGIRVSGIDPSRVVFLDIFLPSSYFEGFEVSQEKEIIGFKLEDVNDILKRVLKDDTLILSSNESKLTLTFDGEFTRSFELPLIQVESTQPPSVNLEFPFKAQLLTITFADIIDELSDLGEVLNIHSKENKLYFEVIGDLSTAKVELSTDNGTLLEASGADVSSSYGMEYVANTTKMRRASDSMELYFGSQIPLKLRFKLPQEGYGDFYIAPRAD

[6] = target: T3, MsePCNA2; assay: SPR; 20 nM MsePCNA1
[7] = target: T4, SsoPCNA2; assay: SPR; 20 nM MsePCNA1
[8] = target: T4, SsoPCNA2; assay: SPR; 5 nM MsePCNA1
[9] = target: T3, MsePCNA2; assay: SPR; 40 nM MsePCNA1
[10] = target: T3, MsePCNA2; assay: SPR; 1.25 nM MsePCNA1
[11] = target: T3, MsePCNA2; assay: SPR; 20 nM MsePCNA1
[12] = target: T3, MsePCNA2; assay: SPR; 5 nM MsePCNA1
[13] = target: T4, SsoPCNA2; assay: SPR; 5 nM MsePCNA1
[14] = target: T3, MsePCNA2; assay: SPR; 10 nM MsePCNA1
[15] = target: T4, SsoPCNA2; assay: SPR; 10 nM MsePCNA1
[16] = target: T3, MsePCNA2; assay: SPR; 10 nM MsePCNA1
[17] = target: T4, SsoPCNA2; assay: SPR; Biacore; about 350 RU of MsePCNA2 or SsoPCNA2 immobilised on Sensor Chip CM5; MsePCNA1 or SsoPCNA1 injected (2.5, 5, 10, 20, 40 nM), kinetic fit; 10 mM HEPES-HCl pH 7.4, 150 mM NaCl
[18] = target: T3, MsePCNA2; assay: SPR; 1.25 nM MsePCNA1
[19] = target: T3, MsePCNA2; assay: SPR; 2.5 nM MsePCNA1
[20] = target: T4, SsoPCNA2; assay: SPR; 2.5 nM MsePCNA1
[21] = target: T4, SsoPCNA2; assay: SPR; 50 nM MsePCNA1
[22] = target: T3, MsePCNA2; assay: SPR; 2.5 nM MsePCNA1
[23] = target: T4, SsoPCNA2; assay: SPR; 2.5 nM MsePCNA1
[24] = target: T5, MsePCNA1 (Metallosphaera sedula, UniProt A4YCS6 1-247); assay: SPR; Biacore; about 350 RU of MsePCNA2 or SsoPCNA2 immobilised on Sensor Chip CM5; MsePCNA1 or SsoPCNA1 injected (2.5, 5, 10, 20, 40 nM), kinetic fit; 10 mM HEPES-HCl pH 7.4, 150 mM NaCl; conditions: both partners purified
T5 construct: MsePCNA1 (Msed_0051), PCNA homologue of Metallosphaera sedula; 'His6-tag-removed' is said for the pull-down only; also called Msed_0051; M. sedula PCNA homologue 1
T5 sequence (looked up): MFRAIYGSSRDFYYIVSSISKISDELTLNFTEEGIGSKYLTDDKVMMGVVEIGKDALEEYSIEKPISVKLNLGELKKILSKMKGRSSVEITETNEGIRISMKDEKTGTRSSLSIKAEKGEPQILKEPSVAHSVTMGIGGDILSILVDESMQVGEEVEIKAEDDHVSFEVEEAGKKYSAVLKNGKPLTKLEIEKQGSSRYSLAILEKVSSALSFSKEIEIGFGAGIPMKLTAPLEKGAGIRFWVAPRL

[25] = target: T6, SsoPCNA1 (Sulfolobus solfataricus, UniProt P57766 1-249); assay: as above; conditions: both partners purified
T6 construct: SsoPCNA1, PCNA subunit 1 of Sulfolobus solfataricus; also called S. solfataricus PCNA1
T6 sequence (looked up): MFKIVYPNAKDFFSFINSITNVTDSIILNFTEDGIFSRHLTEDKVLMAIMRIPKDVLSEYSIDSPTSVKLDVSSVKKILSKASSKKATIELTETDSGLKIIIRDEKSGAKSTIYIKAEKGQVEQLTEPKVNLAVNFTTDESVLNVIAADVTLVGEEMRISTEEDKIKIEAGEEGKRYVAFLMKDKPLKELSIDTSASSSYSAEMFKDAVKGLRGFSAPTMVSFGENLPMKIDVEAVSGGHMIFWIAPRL

SsoPCNA3 (natural protein)
Kd [1]: 190 nM
Kd [2]: 170 nM
Kd [3]: 200 nM

B1: MsePCNA1 (natural protein)
chain: MFRAIYGSSRDFYYIVSSISKISDELTLNFTEEGIGSKYLTDDKVMMGVVEIGKDALEEYSIEKPISVKLNLGELKKILSKMKGRSSVEITETNEGIRISMKDEKTGTRSSLSIKAEKGEPQILKEPSVAHSVTMGIGGDILSILVDESMQVGEEVEIKAEDDHVSFEVEEAGKKYSAVLKNGKPLTKLEIEKQGSSRYSLAILEKVSSALSFSKEIEIGFGAGIPMKLTAPLEKGAGIRFWVAPRL
Kd [4]: 0.253 nM
Kd [5]: 36 nM
Kd [6]: 0.215 nM
Kd [7]: 12.9 nM
Kd [8]: 6.37 nM
koff [9]: 4.29e-05 s⁻¹
koff [10]: 0.000128 s⁻¹
koff [11]: 5.79e-05 s⁻¹
koff [12]: 0.00011 s⁻¹
koff [13]: 0.00132 s⁻¹
Kd [14]: 0.249 nM
Kd [15]: 7.02 nM
koff [16]: 7.99e-05 s⁻¹
Kd [17]: 1.6 nM
koff [17]: 0.0012 s⁻¹
kon [17]: 130000 M⁻¹ s⁻¹
Kd [18]: 0.531 nM
Kd [19]: 0.396 nM
Kd [20]: 6.81 nM
Kd [21]: 27.5 nM
koff [22]: 0.000121 s⁻¹
koff [23]: 0.00134 s⁻¹

B2: MsePCNA2 (natural protein, Metallosphaera sedula, UniProt A4YHP5 1-244, looked up)
chain: MKFKVIDANSMATIFRTIGEFMPEITLIGTKEGVRLSGVDPARVALIDIFIPQAYFHEYESAEKETVTVKLEEIIASLKNVKKNDSLTFQSGEDRLMITLDGDFERTFYLPILMGEEPSLPSIKLEFAFKAKMLTSTFSNVMQILGDLGDALTLSAEGGKLTFMVEGDVGSSKVELSEESGTLLEATGADAKGTYGMDYLVKTAKMRNSSDIVELMFGSQLPIKLRFELPQEGYGDFYIAPRAE
notes: MsePCNA2 (Msed_1792), PCNA homologue of Metallosphaera sedula; 'His6-tag-removed' is said for the pull-down only; also called Msed_1792; M. sedula PCNA homologue 2
Kd [24]: 0.33 nM
koff [24]: 8.9e-05 s⁻¹
kon [24]: 280000 M⁻¹ s⁻¹
Kd [25]: 1.8 nM
koff [25]: 0.00044 s⁻¹
kon [25]: 270000 M⁻¹ s⁻¹

B3: MsePCNA3 (natural protein, Metallosphaera sedula, UniProt A4YIY6 1-245, looked up)
chain: MRIAYANAMDFKTVIEALSKLIDEVTFTFTSSGLDVVAVDRAHISLIKLHFPKEAFEEFDVEDQFRFGFNTQYMLKVMASAKRKEKIEMESREESEIVIRMLGEPPREFTIRNIEVPIQELPELKLDFDVKAKITSGGFKKAVSEIATVSDSVEIDATEMEIKLRSKESTEIEVEFSKEMGGLQEIEVKKPSVSSYPSDYLEDVLVLTRLSGFLNLLFSEQKPLQLEFNMDNGGSVVYLLAPNVG
notes: MsePCNA3 (Msed_2250), PCNA homologue of Metallosphaera sedula; 'His6-tag-removed' is said for the pull-down only; also called Msed_2250; M. sedula PCNA homologue 3
Kd ([1]; both partners purified): 43 nM
Kd ([2]; both partners purified): 380 nM
